Measurements taken from publication PMC12416549 (2024).
Changes are numbered by the printed parent chain. Numbers in names are those of the source.

T1: TNFR1 (Homo sapiens, UniProt P19438)
T1 chain: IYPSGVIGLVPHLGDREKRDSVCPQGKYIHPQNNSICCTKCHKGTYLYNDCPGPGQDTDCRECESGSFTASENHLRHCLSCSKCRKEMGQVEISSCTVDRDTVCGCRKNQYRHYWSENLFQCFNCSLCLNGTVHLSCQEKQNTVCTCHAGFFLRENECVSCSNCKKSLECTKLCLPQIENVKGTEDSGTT

B1: E44S (designed binder)
chain: MTLQELLREEALRRAEAEAFRYALELLAEKFPEQKEYLLDLAESIESQIRSLSGVDVEDVRKFLDKEWAWVKELLAEHPAELAEVEAARAARLAELRAEVEAKVAA
B2: M1E (designed binder)
chain: B1 chain with M1E, S44E
B3: E73I (designed binder)
chain: B1 chain with S44E, E73I
B4: D40N (designed binder)
chain: B1 chain with D40N, S44E
B5: V60S (designed binder)
chain: B1 chain with S44E, V60S
B6: V55M (designed binder)
chain: B1 chain with S44E, V55M
B7: P79C (designed binder)
chain: B1 chain with S44E, P79C
B8: Q34P (designed binder)
chain: B1 chain with Q34P, S44E
B9: E36M (designed binder)
chain: B1 chain with E36M, S44E
B10: Q48H (designed binder)
chain: B1 chain with S44E, Q48H
B11: D59W (designed binder)
chain: B1 chain with S44E, D59W
B12: E5F (designed binder)
chain: B1 chain with E5F, S44E
B13: D40G (designed binder)
chain: B1 chain with D40G, S44E
B14: L39S (designed binder)
chain: B1 chain with L39S, S44E
B15: R97C (designed binder)
chain: B1 chain with S44E, R97C
B16: A17W (designed binder)
chain: B1 chain with A17W, S44E
B17: E84Y (designed binder)
chain: B1 chain with S44E, E84Y
B18: E25M (designed binder)
chain: B1 chain with E25M, S44E
B19: K103R (designed binder)
chain: B1 chain with S44E, K103R
B20: K66C (designed binder)
chain: B1 chain with S44E, K66C
B21: K66D (designed binder)
chain: B1 chain with S44E, K66D
B22: A80E (designed binder)
chain: B1 chain with S44E, A80E
B23: A90V (designed binder)
chain: B1 chain with S44E, A90V
B24: E101S (designed binder)
chain: B1 chain with S44E, E101S
B25: Q4I (designed binder)
chain: B1 chain with Q4I, S44E
B26: A105H (designed binder)
chain: B1 chain with S44E, A105H
B27: V60R (designed binder)
chain: B1 chain with S44E, V60R
B28: E84A (designed binder)
chain: B1 chain with S44E, E84A
B29: R92I (designed binder)
chain: B1 chain with S44E, R92I
B30: A98T (designed binder)
chain: B1 chain with S44E, A98T
B31: S51I (designed binder)
chain: B1 chain with S44E, S51I
B32: L52G (designed binder)
chain: B1 chain with S44E, L52G
B33: A42H (designed binder)
chain: B1 chain with A42H, S44E
B34: K62S (designed binder)
chain: B1 chain with S44E, K62S
B35: Q4A (designed binder)
chain: B1 chain with Q4A, S44E
B36: K72E (designed binder)
chain: B1 chain with S44E, K72E
B37: A87L (designed binder)
chain: B1 chain with S44E, A87L
B38: Y37T (designed binder)
chain: B1 chain with Y37T, S44E
B39: A76F (designed binder)
chain: B1 chain with S44E, A76F
B40: E86L (designed binder)
chain: B1 chain with S44E, E86L
B41: S53T (designed binder)
chain: B1 chain with S44E, S53T
B42: L52D (designed binder)
chain: B1 chain with S44E, L52D
B43: E33Q (designed binder)
chain: B1 chain with E33Q, S44E
B44: E77M (designed binder)
chain: B1 chain with S44E, E77M
B45: V57I (designed binder)
chain: B1 chain with S44E, V57I
B46: E16G (designed binder)
chain: B1 chain with E16G, S44E
B47: V55S (designed binder)
chain: B1 chain with S44E, V55S
B48: R92K (designed binder)
chain: B1 chain with S44E, R92K
B49: L41V (designed binder)
chain: B1 chain with L41V, S44E
B50: E86C (designed binder)
chain: B1 chain with S44E, E86C
B51: Q4H (designed binder)
chain: B1 chain with Q4H, S44E
B52: E9H (designed binder)
chain: B1 chain with E9H, S44E
B53: R92Q (designed binder)
chain: B1 chain with S44E, R92Q
B54: K103Q (designed binder)
chain: B1 chain with S44E, K103Q
B55: V85M (designed binder)
chain: B1 chain with S44E, V85M
B56: K103L (designed binder)
chain: B1 chain with S44E, K103L
B57: L75W (designed binder)
chain: B1 chain with S44E, L75W
B58: E10A (designed binder)
chain: B1 chain with E10A, S44E
B59: E33W (designed binder)
chain: B1 chain with E33W, S44E

Molecular target: T1, TNFR1
Assay: yeast display SC50

apparent Kd (screen) | Binder
13800 pM | B1
593 pM | B2
718 pM | B3
2480 pM | B4
446 pM | B5
2730 pM | B6
718 pM | B7
490 pM | B8
490 pM | B9
653 pM | B10
1050 pM | B11
653 pM | B12
1050 pM | B13
2250 pM | B14
1050 pM | B15
539 pM | B16
718 pM | B17
368 pM | B18
446 pM | B19
1400 pM | B20

apparent Kd (screen) | Binder
490 pM | B21
490 pM | B22
593 pM | B23
956 pM | B24
446 pM | B25
490 pM | B26
12500 pM | B27
718 pM | B28
490 pM | B29
539 pM | B30
1860 pM | B31
1270 pM | B32
3000 pM | B33
539 pM | B34
718 pM | B35
869 pM | B36
653 pM | B37
10400 pM | B38
446 pM | B39
3000 pM | B40

apparent Kd (screen) | Binder
490 pM | B41
24400 pM | B42
490 pM | B43
593 pM | B44
2730 pM | B45
593 pM | B46
1860 pM | B47
593 pM | B48
869 pM | B49
653 pM | B50
790 pM | B51
593 pM | B52
304 pM | B53
539 pM | B54
490 pM | B55
1860 pM | B56
1160 pM | B57
5310 pM | B58
593 pM | B59
